Entries after “also recorded” stand apart in the source; their conditions may differ.
Experiments:
[1] = test system: hTERT-immortalized dermal melanocytes; test: Melanocyte assay, daily inspection of cell morphology; type: cell-based, human; conditions: both concentrations of Table 11; five-day dosing period
Procedure: Once the melanocytes were 100% confluent in 6-well plates, the melanocyte growth media was removed and the melanocytes were treated with media containing the above compounds; duplicate wells for each compound/concentration listed above. The duplicate vehicle control wells were fed melanocyte growth media only or melanocyte growth media with DMSO (10 uL per 10 mL melanocyte growth media).
The cells were fed the appropriate media for the next 5 days. Each day, the cells were inspected for morphology.

[2] = test system: melanocytes; test: In vitro melanocyte comparative analysis via absorbance readings (melanin production); type: cell-based; conditions: for Absorbance 405 nm / Absorbance 490 nm / Absorbance 492 nm: 4 days, control = 0.0 row
Procedure: Melanocytes were cultured in 6-well plates containing growth media. Once confluent, 2 concentrations of each of the 10 compounds were added to the cells in triplicate wells for 4 days. There were a total of eleven 6-well plates, one for each compound treatment and one for the vehicle control. Absorbance readings were taken on the lysates prepared for each well of the 6-well plates, normalizing for cells counts. The model was initially tested for accuracy and validated using hexapeptide-12 in view of strong gene expression results with melanocyte cell line in the first study—confirmation of decreased stimulation was obtained. Additional validation was carried out using MSH addition to media to confirm increased stimulation of melanin production. The following compounds used in this study are seen in Table 9.

[3] = test system: endothelial cells; test: Gene expression of PMEL, tyrosinase genes, MC1/4R, EDNRB, MITF, ERK1/2, JNK, AKT1; type: cell-based; conditions: after treatment of endothelial cells
From the text: The methods similar to Examples 3-4 were used to measure expression of PMEL, tyrosinase genes, MC1/4R, EDNRB, MITF, ERK1/2, JNK, and ANKT1.
FIGS. 10A-10D illustrates the expression of PMEL (FIG. 10A), Tyrosinase genes (FIG. 10B), MC1/4R (FIG. 10C), and EDNRB (FIG. 10D) after treatment of endothelial cells with lactoferrin (Lacto), peptide derived from lactoferrin (TCV), hexapeptide-12 (Hex12), tripeptide-1 and hexapeptide-12 (TriHex), hexapeptide-11 (Hex11), tranexamic acid (Tran acid) octapeptide (Octa), phosphatidylserine (phos), Cannabidiol (CBD), and all (total).
MITF is regulated by phosphorylation. Specifically, the MAPK and Akt pathways are known to phosphorylate MITF at certain sites. FIGS. 12A-12C illustrate the expression of ERK1/2 (MAPK3/MAPK1) (FIG. 12A), JNK (FIG. 12B), AKT1 (FIG. 12C) after treatment of endothelial cells with lactoferrin (Lacto), peptide derived from lactoferrin (TCV), hexapeptide-12 (Hex12), tripeptide-1 and hexapeptide-12 (TriHex), hexapeptide-11 (Hex11), octapeptide (Octa), phosphatidylserine (phos), Cannabidiol (CBD), and all (total).

[4] = test system: melanocytes; test: Gene expression study (RNA sequencing) in PGE2-induced melanocytes; type: cell-based, human; conditions: melanocytes induced with 10 uM PGE2; 24 hours of compound exposure
Procedure: Four cell types associated with pigmentation pathways—melanocytes, keratinocytes, fibroblasts and endothelial (HUVEC) cells—were analyzed for gene expression.
To simulate the UV stimulatory pigmentation pathway process, melanocytes were pre-treated with PGE2, a normal direct consequence of UV light exposure usually emanating from exposed keratinocytes. After the 48 hour attachment culture, these melanocytes were induced with 10 uM PGE2 in melanocyte media for 24 hrs. The four primary human adult dermal cell lines were cultured and plated in well plates in triplicate and then treated with 11 different compound treatments (plus DMSO control). After 48 hours of attachment culture, the remaining fibroblasts, HUVECs and keratinocytes were treated with the test compounds listed in Table 8.
After 24 hours of compound exposure, RNA lysate preparation was carried out and samples were shipped to MedGenome for RNA extraction, library construction and sequencing to 25M paired end 100 bp reads per sample. Library prep and sequencing was completed at MedGenome.

[5] = higher concentration (Lactoferrin 1000, HEX-11 200, Phosphatidylserine 500, Silymarin 20, Sesamol 100, Tranexamic Acid 1000, HEX-12 4.9, ug/mL or ug/uL; Phytoene/Phytofluene 5.00%)
[6] = lower concentration (Lactoferrin 500, HEX-11 100, Phosphatidylserine 250, Silymarin 10, Sesamol 50, Tranexamic Acid 500, HEX-12 2.9, ug/mL or ug/uL; Phytoene/Phytofluene 2.50%)

B1: Lactoferrin: 80 kDa iron binding glycoprotein of the transferrin family (protein)
chain: APRKNVRWCTISQPEWFKCRRWQWRMKKLGAPSITCVRRAFALECIRAIAEKKADAVTLDGGMVFEACRDPYKLRPVAAEIYGTKESPQTHYYAVAVVKKGSNFQLDQLQGRKSCHTGLGRSAGWIIPMGILRPYLSWTESLEPLQGAVAKFFSASCVPCIDRQAYPNLCQLCKGEGENQCACSSREPYFGYSGAFKCLQDGAGDVAFVKETTVFENLPEKADRDQYELLCLNNSRAPVDAFKECHLAQVPSHAVVARSVDGKEDLIWKLLSKAQEKFGKNKSRSFQLFGSPPGQRDLLFKDSALGFLRIPSKVDSALYLGSRYLTTLKNLRETAEEVKARYTRVVWCAVGPEEQKKCQQWSQQSGQNVTCATASTTDDCIVLVLKGEADALNLDGGYIYTAGKCGLVPVLAENRKSSKHSSLDCVLRPTEGYLAVAVVKKANEGLTWNSLKDKKSCHTAVDRTAGWNIPMGLIVNQTGSCAFDEFFSQSCAPGADPKSRLCALCAGDDQGLDKCVPNSKEKYYGYTGAFRCLAEDVGDVAFVKNDTVWENTNGESTADWAKNLNREDFRLLCLDGTRKPVTEAQSCHLAVAPNHAVVSRSDRAAHVKQVLLHQQALFGKNGKNCPDKFCLFKSETKNLLFNDNTECLAKLGGRPTYEEYLGTEYVTAIANLKKCSTSPLLEACAFLTR
- melanocyte morphology / survival on daily inspection [1]: developed a circular morphology rather the normal webbed morphology 24 hour post-initial dosing; also recorded: at 48 hours post-initial dosing, the melanocytes returned to normal morphology
- Absorbance 405 nm [2, 5]: 0.519
- Absorbance 490 nm [2, 5]: 0.312
- Absorbance 492 nm [2, 5]: 0.226
- Absorbance 405 nm [2, 6]: 0.509
- Absorbance 490 nm [2, 6]: 0.334
- Absorbance 492 nm [2, 6]: 0.217
- Regulation of melanogenesis (decreased absorption denoting decreased melanin formation) ([2]; melanocytes, summary of Table 10): Regulation of melanogenesis was observed
- melanogenic activity (expression of PMEL, tyrosinase genes, MC1/4R, EDNRB, kinases) [3]: robust melanogenic activity; also recorded: significant effects on such melanogenic activity
- melanogenic gene activity in melanocytes [4]: particularly dominant in melanogenic activity; also recorded: significant effects on melanogenesis activity

From US20240225985A1, “BRIGHTENING COMPOSITIONS AND METHODS OF USE” (Alastin Skincare, Inc., priority 2021, published 2024)
